Reference: patent publication US20030087316A1, “Diagnostic markers of liver dysfunction” (priority 2001, published 2003)
“Also recorded” adds a separate entry of the source.

T1: C1s (Homo sapiens, UniProt P09871)
T1 construct: purchased Advanced Research Technologies (San Diego, Calif.)
T1 sequence (P09871 438-688 limits assumed): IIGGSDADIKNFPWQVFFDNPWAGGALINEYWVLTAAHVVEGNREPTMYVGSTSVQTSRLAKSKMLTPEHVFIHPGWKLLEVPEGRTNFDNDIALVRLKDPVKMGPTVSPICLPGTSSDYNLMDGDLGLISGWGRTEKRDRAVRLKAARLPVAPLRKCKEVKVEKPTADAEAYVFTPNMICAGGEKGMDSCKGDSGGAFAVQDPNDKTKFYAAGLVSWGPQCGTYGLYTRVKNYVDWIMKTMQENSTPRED
T1 sequence (P09871 16-437 partner limits assumed): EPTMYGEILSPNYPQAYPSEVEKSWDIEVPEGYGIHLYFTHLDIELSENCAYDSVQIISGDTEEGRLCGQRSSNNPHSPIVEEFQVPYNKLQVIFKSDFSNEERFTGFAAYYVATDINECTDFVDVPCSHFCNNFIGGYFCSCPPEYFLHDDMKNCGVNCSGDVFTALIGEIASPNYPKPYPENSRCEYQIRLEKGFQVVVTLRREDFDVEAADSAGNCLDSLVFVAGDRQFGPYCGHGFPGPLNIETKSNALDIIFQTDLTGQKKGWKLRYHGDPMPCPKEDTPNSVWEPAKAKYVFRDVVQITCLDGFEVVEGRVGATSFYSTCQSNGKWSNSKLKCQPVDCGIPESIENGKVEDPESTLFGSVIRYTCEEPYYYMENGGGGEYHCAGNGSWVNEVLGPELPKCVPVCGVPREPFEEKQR


Columns and labels:
C1s = biological target: T1, C1s; assay: Peptidase (amidolytic) activity of purified C1s, chromogenic substrate, 96-well plate, OD 405 nm; format: biochemical; conditions: for % Residual activity, C1s: substrate S2288; for Inhibition of C1s, in words: text on Tables 2 and 3, concentrations as there
Method: (§1) The peptidase activity in plasma samples or of the purified enzymes were routinely determined at 37° C. in a 96-well plate. Each well contained 0.5 mM substrate in 100 μl of Tris-buffered saline (TBS)-EDTA buffer (50 mM Tris/150 mM NaCl/10 mM EDTA, pH 7.8) and the reaction was monitored using a microplate reader (Titertek Multiscan, Labsystems, Needham Heights, Mass.).
(§2) The enzymes C1s (100 nM), plasm in (100 nM), thrombin (100 nM), plasma kallikrein (20 nM), β-FXIIa (100 nM), trypsin (16 nM) or LTR EDTA plasma samples were incubated for 60 min at 4° C. with TBS-EDTA buffer containing either LBTI (1 mg/ml), SBTI (I mg/ml), aprotinin (0.075 mg/ml), benzamidine (50 mM), or Futhan (0.1 mg/ml), before mixing with the substrate. EDTA plasma samples from LTR were diluted 10 or 20-fold with TBS-EDTA. The chromogenic substrate AGLTR-pNA was used for all enzymes and LTR samples except C1s where the substrate S2288 was used. Based on the initial rate of increase in OD at 405 nm, the residual free enzyme level was calculated and expressed as a percentage of total activity without inhibitor added.
(§3) Ten-fold diluted normal EDTA plasma was added to each enzyme. The enzymes C1s (100 nM), plasmin (100 nM), thrombin (100 nM), plasma kallikrein (20 nM), β-FXIIa (100 nM), trypsin (16 nM) or LTR EDTA plasma samples were incubated for 60 min at 4° C. with TBS-EDTA buffer containing either C1INH (40 μg/ml), bdellin (50 μg/ml), hirudin (50 U/ml), PPACK 11(10 μM), or CTI (100 μg/ml), before adding the substrate. LTR samples were 10 or 20-fold diluted with TBS-EDTA. The chromogenic substrate AGLTR-pNA was used for all enzymes and LTP samples except C1s where the substrate S2288 was used. Based on the initial rate of increase in OD at 405 nm, the residual free enzyme was calculated and expressed as a percentage of total activity determined without inhibitor added.

plasma kallikrein = biological target: T2, plasma kallikrein (Homo sapiens, UniProt P03952); assay: Peptidase (amidolytic) activity of purified plasma kallikrein, chromogenic substrate, OD 405 nm; format: biochemical; conditions: for % Residual activity, Plasma Kallikrein: substrate AGLTR-pNA; for Inhibition of purified plasma kallikrein activity, in words: text on Tables 2 and 3, concentrations as there
T2 construct: The light chain of kallikrein contains the enzymatic domain; purchased Calbiochem-Novabiochem Corp (La Jolla, Calif.)
Method: as §1
(§4) […] EDTA plasma samples from LTR were diluted 10 or 20-fold with TBS-EDTA. The chromogenic substrate AGLTR-pNA was used for all enzymes and LTR samples except C1s where the substrate S2288 was used. Based on the initial rate of increase in OD at 405 nm, the residual free enzyme level was calculated and expressed as a percentage of total activity without inhibitor added.
(§5) Ten-fold diluted normal EDTA plasma was added to each enzyme. […] LTR samples were 10 or 20-fold diluted with TBS-EDTA. The chromogenic substrate AGLTR-pNA was used for all enzymes and LTP samples except C1s where the substrate S2288 was used. Based on the initial rate of increase in OD at 405 nm, the residual free enzyme was calculated and expressed as a percentage of total activity determined without inhibitor added.

[1] = system: proteinase(s) in EDTA plasma from LTR (kallikrein-like peptidase); assay: Peptidase activity in EDTA plasma from liver transplant recipients (LTR), chromogenic substrate, OD 405 nm; format: biochemical, human; conditions: for % Residual activity, LTR 1 / % Residual activity, LTR 2 / % Residual activity, LTR 3: substrate AGLTR-pNA; for Inhibition of the LTR plasma peptidase activity, in words: text on Tables 2 and 3, concentrations as there
Method: Blood samples were drawn into 5 ml EDTA tubes (Venoject; Terumo Corp., Elkton, Md.). The plasma was collected immediately by centrifugation at 2,000×g for 15 min at 4° C. The plasma samples were either processed immediately for analysis or stored at −70° C. Frozen samples were thawed at 4° C. prior to analysis.
as §1, §2, §3

plasmin = biological target: T3, plasmin (Homo sapiens, UniProt P00747); assay: Peptidase (amidolytic) activity of purified plasmin, chromogenic substrate, OD 405 nm; format: biochemical; conditions: for % Residual activity, Plasmin: substrate AGLTR-pNA; for Inhibition of plasmin amidolytic activity, in words: concentrations as there
T3 construct: purchased Calbiochem-Novabiochem Corp (La Jolla, Calif.)
Method: as §1, §2, §3

thrombin = biological target: T4, thrombin (Homo sapiens, UniProt P00734); assay: Peptidase (amidolytic) activity of purified thrombin, chromogenic substrate, OD 405 nm; format: biochemical
T4 construct: purchased Calbiochem-Novabiochem Corp (La Jolla, Calif.)

β-Factor XIIa (β-FXIIa) = biological target: T5, β-Factor XIIa (β-FXIIa) (Homo sapiens, UniProt P00748); assay: Peptidase (amidolytic) activity of purified β-FXIIa, chromogenic substrate, OD 405 nm; format: biochemical; conditions: substrate AGLTR-pNA
T5 construct: β-Factor XIIa (β-FXIIa) was kindly provided by Dr. Mary J. Heeb; gift of Dr. Mary J. Heeb, The Scripps Research Institute
Method: as §1, §4, §5

trypsin = assay: Peptidase (amidolytic) activity of purified trypsin, chromogenic substrate, OD 405 nm; format: biochemical; conditions: Table 2; for Inhibition of trypsin amidolytic activity, in words: concentrations as there; for % Residual activity, Trypsin: trypsin 16 nM, substrate AGLTR-pNA, 60 min at 4° C. with LBTI 1 mg/ml, SBTI I mg/ml, aprotinin 0.075 mg/ml, benzamidine 50 mM or Futhan 0.1 mg/ml
Method: as §1, §2

[2] = Table 3, C1s 100 nM with ten-fold diluted normal EDTA plasma added, 60 min at 4° C. with C1INH 40 μg/ml or PPACK 11 10 μM
[3] = Table 3, plasma kallikrein 20 nM with ten-fold diluted normal EDTA plasma added, 60 min at 4° C. with C1INH 40 μg/ml or PPACK 11 10 μM
[4] = Table 3, LTR 1 EDTA plasma 10 or 20-fold diluted, 60 min at 4° C. with C1INH 40 μg/ml, bdellin 50 μg/ml, hirudin 50 U/ml, PPACK 11 10 μM or CTI 100 μg/ml
[5] = Table 3, LTR 2 EDTA plasma 10 or 20-fold diluted, 60 min at 4° C. with C1INH 40 μg/ml, bdellin 50 μg/ml, hirudin 50 U/ml, PPACK 11 10 μM or CTI 100 μg/ml
[6] = Table 3, LTR 3 EDTA plasma 10 or 20-fold diluted, 60 min at 4° C. with C1INH 40 μg/ml, bdellin 50 μg/ml, hirudin 50 U/ml, PPACK 11 10 μM or CTI 100 μg/ml
[7] = Table 3, thrombin 100 nM with ten-fold diluted normal EDTA plasma added, substrate AGLTR-pNA, 60 min at 4° C. with hirudin 50 U/ml or PPACK 11 10 μM
[8] = Table 2, C1s 100 nM, 60 min at 4° C. with LBTI 1 mg/ml, SBTI I mg/ml, aprotinin 0.075 mg/ml, benzamidine 50 mM or Futhan 0.1 mg/ml, % of total activity without inhibitor
[9] = Table 2, plasmin 100 nM, 60 min at 4° C. with LBTI 1 mg/ml, SBTI I mg/ml, aprotinin 0.075 mg/ml, benzamidine 50 mM or Futhan 0.1 mg/ml
[10] = Table 2, thrombin 100 nM, substrate AGLTR-pNA, 60 min at 4° C. with LBTI 1 mg/ml, SBTI I mg/ml, aprotinin 0.075 mg/ml, benzamidine 50 mM or Futhan 0.1 mg/ml
[11] = Table 2, plasma kallikrein 20 nM, 60 min at 4° C. with LBTI 1 mg/ml, SBTI I mg/ml, aprotinin 0.075 mg/ml, benzamidine 50 mM or Futhan 0.1 mg/ml
[12] = Table 2, β-FXIIa 100 nM, 60 min at 4° C. with LBTI 1 mg/ml, SBTI I mg/ml, aprotinin 0.075 mg/ml, benzamidine 50 mM or Futhan 0.1 mg/ml
[13] = Table 2, LTR 1 EDTA plasma diluted 10 or 20-fold, 60 min at 4° C. with LBTI 1 mg/ml, SBTI I mg/ml, aprotinin 0.075 mg/ml, benzamidine 50 mM or Futhan 0.1 mg/ml
[14] = Table 2, LTR 2 EDTA plasma diluted 10 or 20-fold, 60 min at 4° C. with LBTI 1 mg/ml, SBTI I mg/ml, aprotinin 0.075 mg/ml, benzamidine 50 mM or Futhan 0.1 mg/ml
[15] = Table 2, LTR 3 EDTA plasma diluted 10 or 20-fold, 60 min at 4° C. with LBTI 1 mg/ml, SBTI I mg/ml, aprotinin 0.075 mg/ml, benzamidine 50 mM or Futhan 0.1 mg/ml

T3 sequence (P00747 581-810 limits assumed, species assumed): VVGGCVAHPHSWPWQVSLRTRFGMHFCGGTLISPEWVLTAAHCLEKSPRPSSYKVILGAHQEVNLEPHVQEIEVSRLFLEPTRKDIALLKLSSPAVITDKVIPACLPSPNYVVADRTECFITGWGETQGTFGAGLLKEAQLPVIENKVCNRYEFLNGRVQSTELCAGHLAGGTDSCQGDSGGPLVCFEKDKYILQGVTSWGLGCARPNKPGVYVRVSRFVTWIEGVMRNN
T3 sequence (P00747 97-580 partner limits assumed, species assumed): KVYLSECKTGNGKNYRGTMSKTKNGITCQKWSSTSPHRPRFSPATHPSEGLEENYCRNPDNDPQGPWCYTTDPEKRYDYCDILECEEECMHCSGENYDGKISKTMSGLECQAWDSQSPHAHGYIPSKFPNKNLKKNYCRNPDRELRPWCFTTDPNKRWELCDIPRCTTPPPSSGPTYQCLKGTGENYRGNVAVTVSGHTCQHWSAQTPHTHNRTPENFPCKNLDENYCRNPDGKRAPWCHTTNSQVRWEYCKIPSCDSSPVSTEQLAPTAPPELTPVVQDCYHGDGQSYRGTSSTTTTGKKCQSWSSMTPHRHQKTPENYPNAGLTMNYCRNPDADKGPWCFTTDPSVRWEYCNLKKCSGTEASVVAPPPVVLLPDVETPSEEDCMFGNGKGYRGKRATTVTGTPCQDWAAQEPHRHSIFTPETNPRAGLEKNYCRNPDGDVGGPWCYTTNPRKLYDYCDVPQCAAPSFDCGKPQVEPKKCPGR
T2 sequence (P03952 391-638 limits assumed): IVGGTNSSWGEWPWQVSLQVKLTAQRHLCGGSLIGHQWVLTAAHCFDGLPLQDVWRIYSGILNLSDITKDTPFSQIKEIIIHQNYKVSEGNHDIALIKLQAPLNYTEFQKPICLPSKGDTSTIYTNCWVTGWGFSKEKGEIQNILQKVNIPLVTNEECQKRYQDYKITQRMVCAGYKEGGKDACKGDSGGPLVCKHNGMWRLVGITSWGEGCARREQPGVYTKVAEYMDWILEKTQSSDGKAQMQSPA
T2 sequence (P03952 20-390 partner limits assumed): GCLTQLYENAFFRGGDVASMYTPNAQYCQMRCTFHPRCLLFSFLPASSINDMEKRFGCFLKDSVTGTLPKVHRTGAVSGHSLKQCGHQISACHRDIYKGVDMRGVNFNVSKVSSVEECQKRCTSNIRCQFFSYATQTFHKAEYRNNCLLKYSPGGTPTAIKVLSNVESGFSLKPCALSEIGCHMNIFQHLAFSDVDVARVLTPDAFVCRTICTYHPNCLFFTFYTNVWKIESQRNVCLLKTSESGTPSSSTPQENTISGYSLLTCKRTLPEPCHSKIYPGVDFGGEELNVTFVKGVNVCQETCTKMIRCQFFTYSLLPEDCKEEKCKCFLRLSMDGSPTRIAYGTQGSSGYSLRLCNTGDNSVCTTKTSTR
T5 sequence (P00748 373-615 limits assumed, other chains not shown): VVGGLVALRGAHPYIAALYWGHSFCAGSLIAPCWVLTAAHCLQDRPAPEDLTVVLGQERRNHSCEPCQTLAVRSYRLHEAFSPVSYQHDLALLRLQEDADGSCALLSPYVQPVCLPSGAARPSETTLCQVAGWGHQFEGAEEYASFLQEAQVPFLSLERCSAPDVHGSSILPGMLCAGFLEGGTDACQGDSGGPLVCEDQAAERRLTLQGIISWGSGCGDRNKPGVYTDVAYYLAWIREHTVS

Row | Molecule | % Residual activity, C1s (C1s; [2]) | Inhibition of C1s, in words (C1s) | % Residual activity, Plasma Kallikrein (plasma kallikrein; [3]) | Inhibition of purified plasma kallikrein activity, in words (plasma kallikrein) | % Residual activity, LTR 1 [1, 4] | % Residual activity, LTR 2 [1, 5] | % Residual activity, LTR 3 [1, 6] | Inhibition of the LTR plasma peptidase activity, in words [1] | % Residual activity, Thrombin (thrombin; [7]) | % Residual activity, C1s (C1s; [8]) | Inhibition of plasmin amidolytic activity, in words (plasmin; Table 2) | % Residual activity, Plasmin (plasmin; [9]) | % Residual activity, Thrombin (thrombin; [10]) | % Residual activity, Plasma Kallikrein (plasma kallikrein; [11]) | % Residual activity, β-FXIIa (β-Factor XIIa (β-FXIIa); [12]) | Inhibition of trypsin amidolytic activity, in words (trypsin) | % Residual activity, Trypsin (trypsin) | % Residual activity, LTR 1 [1, 13] | % Residual activity, LTR 2 [1, 14] | % Residual activity, LTR 3 [1, 15] | also measured
1 | C1INH: human C1 esterase inhibitor, purchased from Sigma Chemical | 37.8% | only partially inhibited C1s | 37.0% | caused only partial inhibition | 81.4% | 84.0% | 41.0% | caused only partial inhibition | – | – | – | – | – | – | – | – | – | – | – | – | Inhibition of the LTR plasma peptidase activity, in words ([1]; listed as CINH): inhibited partially
2 | D-Phe-Phe-Arg-chloromethylketone [PPACK II] | 82.2% | failed to inhibit C1s | 0.0% | totally inhibited | −0.2% | 0.6% | 2.7% | totally inhibited; also recorded: substantially inhibited | 0.7% | – | – | – | – | – | – | – | – | – | – | – | % Residual activity, Plasmin (plasmin; Table 3, plasmin 100 nM with ten-fold diluted normal EDTA plasma added, 60 min at 4° C. with bdellin 50 μg/ml or PPACK 11 10 μM): 9.2%; % Residual activity, β-FXIIa (β-Factor XIIa (β-FXIIa); Table 3, β-FXIIa 100 nM with ten-fold diluted normal EDTA plasma added, 60 min at 4° C. with PPACK 11 10 μM or CTI 100 μg/ml): 8.4%
3 | Hirudin | – | – | – | – | 100.4% | 99.5% | 104.1% | failed to reduce the plasma peptidase activity; also recorded: not inhibited | 2.6% | – | – | – | – | – | – | – | – | – | – | – | Inhibition of thrombin by hirudin (FIG. 8), in words (thrombin; 50 U/ml hirudin, substrate AGLTR-pNA, versus time at 37° C.): effectively inhibited; Inhibition of thrombin, in words (thrombin; Table 3): a very effective thrombin inhibitor
4 | aprotinin | – | but not C1s | – | efficiently inhibited | – | – | – | only partially effective | – | 104.8% | efficiently inhibited | 2.4% | 84.6% | 3.5% | 106.0% | efficiently inhibited | 4.8% | 35.3% | 40.2% | 21.4% | –
5 | SBTI: soybean trypsin inhibitor, purchased from Sigma Chemical (protein, UniProt P01070 25-205, looked up) Trypsin inhibitor A: DFVLDNEGNPLENGGTYYILSDITAFGGIRAAPTGNERCPLTVVQSRNELDKGIGTIISSPYRIRFIAEGHPLSLKFDSFAVIMLCVGIPTEWSVVEDLPEGPAVKIGENKDAMDGWFRLERVSDDEFNNYKLVFCPQQAEDDKCGDIGISIDHDDGTRRLVVSKNKPLVVQFQKLDKESL | – | but not C1s | – | efficiently inhibited | – | – | – | only partially effective | – | 123.6% | efficiently inhibited | 3.7% | 46.7% | 2.2% | 109.1% | efficiently inhibited | 5.3% | 44.2% | 61.9% | 28.8% | –
